Measurements from IntAct's records for PubMed 21718540.

B1: TGF-beta receptor type-1 (Mus musculus), Q64729 (parent)
chain: MEAAAAAPRRPQLLIVLVAAATLLPGAKALQCFCHLCTKDNFTCETDGLCFVSVTETTDKVIHNSMCIAEIDLIPRDRPFVCAPSSKTGAVTTTYCCNQDHCNKIELPTTGPFSEKQSAGLGPVELAAVIAGPVCFVCIALMLMVYICHNRTVIHHRVPNEEDPSLDRPFISEGTTLKDLIYDMTTSGSGSGLPLLVQRTIARTIVLQESIGKGRFGEVWRGKWRGEEVAVKIFSSREERSWFREAEIYQTVMLRHENILGFIAADNKDNGTWTQLWLVSDYHEHGSLFDYLNRYTVTVEGMIKLALSTASGLAHLHMEIVGTQGKPAIAHRDLKSKNILVKKNGTCCIADLGLAVRHDSATDTIDIAPNHRVGTKRYMAPEVLDDSINMKHFESFKRADIYAMGLVFWEIARRCSIGGIHEDYQLPYYDLVPSDPSVEEMRKVVCEQKLRPNIPNRWQSCEALRVMAKIMRECWYANGAARLTALRIKKTLSQLSQQEGIKM
partner: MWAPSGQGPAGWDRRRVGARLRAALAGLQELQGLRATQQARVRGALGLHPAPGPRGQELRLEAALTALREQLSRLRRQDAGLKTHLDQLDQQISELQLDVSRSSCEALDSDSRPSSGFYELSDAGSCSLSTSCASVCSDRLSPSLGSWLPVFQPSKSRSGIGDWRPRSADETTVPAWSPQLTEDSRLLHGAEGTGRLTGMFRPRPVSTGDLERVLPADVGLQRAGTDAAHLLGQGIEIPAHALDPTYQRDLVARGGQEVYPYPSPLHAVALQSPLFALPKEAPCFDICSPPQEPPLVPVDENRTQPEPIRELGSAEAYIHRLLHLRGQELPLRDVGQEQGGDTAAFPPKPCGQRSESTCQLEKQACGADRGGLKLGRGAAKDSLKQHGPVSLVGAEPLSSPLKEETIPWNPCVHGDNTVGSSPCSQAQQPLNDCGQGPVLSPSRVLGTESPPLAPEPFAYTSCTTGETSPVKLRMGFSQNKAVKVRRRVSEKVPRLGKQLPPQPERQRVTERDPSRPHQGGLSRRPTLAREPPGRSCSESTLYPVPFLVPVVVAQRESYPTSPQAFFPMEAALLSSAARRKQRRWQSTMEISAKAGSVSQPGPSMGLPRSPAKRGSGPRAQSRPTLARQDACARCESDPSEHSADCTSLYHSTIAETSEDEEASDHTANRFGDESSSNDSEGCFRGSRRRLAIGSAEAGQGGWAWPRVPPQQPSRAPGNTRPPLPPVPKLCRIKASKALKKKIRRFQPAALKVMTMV

Variants of: B1
Details: with dact2_mouse Dact2, Q7TN08

Question: For MEAAAAAPRRPQLLIVLVAAATLLPGAKALQCFCHLCTKDNFTCETDGLCFVSVTETTDKVIHNSMCIAEIDLIPRDRPFVCAPSSKTGAVTTTYCCNQDHCNKIELPTTGPFSEKQSAGLGPVELAAVIAGPVCFVCIALMLMVYICHNRTVIHHRVPNEEDPSLDRPFISEGTTLKDLIYDMTTSGSGSGLPLLVQRTIARDIVLQESIGKGRFGEVWRGKWRGEEVAVKIFSSREERSWFREAEIYQTVMLRHENILGFIAADNKDNGTWTQLWLVSDYHEHGSLFDYLNRYTVTVEGMIKLALSTASGLAHLHMEIVGTQGKPAIAHRDLKSKNILVKKNGTCCIADLGLAVRHDSATDTIDIAPNHRVGTKRYMAPEVLDDSINMKHFESFKRADIYAMGLVFWEIARRCSIGGIHEDYQLPYYDLVPSDPSVEEMRKVVCEQKLRPNIPNRWQSCEALRVMAKIMRECWYANGAARLTALRIKKTLSQLSQQEGIKM [T204D], which “effect of a mutation on the interaction” value is on record?
Answer: The value was “decreasing interaction”.
